# Source: paper PMC6274998, “Mycobacterium tuberculosis ClpC1 N-Terminal Domain Is Dispensable for Adaptor Protein-Dependent Allosteric Regulation” (International Journal of Molecular Sciences, 2018)
# B1: Mycobacterium tuberculosis ClpS (His6-SUMO tag removed) (natural protein)
# chain: MAVVSAPAKPGTTWQRESAPVDVTDRAWVTIVWDDPVNLMSYVTYVFQKLFGYSEPHATKLMLQVHNEGKAVVSAGSRESMEVDVSKLHAAGLWATMQQDR
# B2: His6-SUMO-ClpS (Mycobacterium tuberculosis ClpS adaptor protein, His6-SUMO fusion) (natural protein)
# chain: B1 chain
# notes: also called His6-ClpS; His6-tagged ClpS; not shown: His6, N-terminal, kept; SUMO, N-terminal, kept
# How the values were obtained:
# [1] = target: ClpS (additional molecules) (Escherichia coli) (UniProt P0A8Q6); conditions: cited from earlier work
# Chain of ClpS (additional molecules) (Escherichia coli) (P0A8Q6 whole entry): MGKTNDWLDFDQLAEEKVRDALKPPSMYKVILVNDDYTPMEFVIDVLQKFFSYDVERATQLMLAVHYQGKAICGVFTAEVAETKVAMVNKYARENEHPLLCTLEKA
# ClpS (Escherichia coli) = ClpS (Escherichia coli) (UniProt P0A8Q6); conditions: cited from earlier work
# Chain of ClpS (Escherichia coli) (P0A8Q6 whole entry): as above
# [2] = target: full-length Mycobacterium tuberculosis ClpC1 (Mycobacterium tuberculosis H37Rv) (UniProt P9WPC9)
# Chain of full-length Mycobacterium tuberculosis ClpC1 (Mycobacterium tuberculosis H37Rv) (P9WPC9 whole entry): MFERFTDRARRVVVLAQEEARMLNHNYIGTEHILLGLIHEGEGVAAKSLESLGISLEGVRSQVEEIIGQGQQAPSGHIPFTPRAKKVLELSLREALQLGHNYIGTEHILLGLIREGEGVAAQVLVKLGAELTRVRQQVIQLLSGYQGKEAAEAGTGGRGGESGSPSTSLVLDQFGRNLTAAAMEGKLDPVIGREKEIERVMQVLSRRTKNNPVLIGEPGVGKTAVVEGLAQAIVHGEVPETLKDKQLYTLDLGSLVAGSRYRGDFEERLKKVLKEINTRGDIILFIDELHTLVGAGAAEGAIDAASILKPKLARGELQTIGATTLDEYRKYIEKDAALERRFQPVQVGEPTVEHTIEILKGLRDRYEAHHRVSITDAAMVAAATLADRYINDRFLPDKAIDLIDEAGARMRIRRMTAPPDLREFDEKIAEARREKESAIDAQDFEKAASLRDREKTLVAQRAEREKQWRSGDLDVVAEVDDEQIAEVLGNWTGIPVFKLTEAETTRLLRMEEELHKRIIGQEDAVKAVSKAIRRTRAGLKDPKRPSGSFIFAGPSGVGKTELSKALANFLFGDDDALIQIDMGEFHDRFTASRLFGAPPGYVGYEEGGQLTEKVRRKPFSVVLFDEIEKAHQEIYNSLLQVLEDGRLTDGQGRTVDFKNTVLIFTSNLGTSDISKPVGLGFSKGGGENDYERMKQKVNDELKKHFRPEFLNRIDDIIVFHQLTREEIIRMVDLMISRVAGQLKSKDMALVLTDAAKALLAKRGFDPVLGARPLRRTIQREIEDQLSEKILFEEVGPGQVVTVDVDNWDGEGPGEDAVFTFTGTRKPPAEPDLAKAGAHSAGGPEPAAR
# [3] = target: T1, full-length Mycobacterium tuberculosis ClpC1 (Mycobacterium tuberculosis H37Rv, UniProt P9WPC9 1-848); assay: pull-down; conditions: both partners purified
# T1 construct: ClpC1 AAA+ ATPase, M. tuberculosis H37Rv, Rv3596c, full length; also called wild-type M. tuberculosis ClpC1; Full-Length ClpC1; not shown: His6-SUMO, N-terminal, cleaved
# T1 sequence (P9WPC9 whole entry): as above
molecule,measurement,setting,value
ClpA (from UniProt P0ABH9),Kd,[1],> 700 nM
same,Kd,ClpS (Escherichia coli),40 nM
B1,"average binding stoichiometry inferred from k (UF,app) against [ClpS]T/[ClpC1]T, stopped-flow unfolding of SsrA-KaedeRed (ClpC1 subunits per ClpS)",[2],2
same,"inflection point of k (UF,app) against the ratio of total ClpS to total ClpC1 monomer concentration, stopped-flow unfolding of SsrA-KaedeRed ([ClpS]T/[ClpC1]T)",[2],0.65
B2,binding result,[3],binds
